According to US20100120024:
Read-outs that look alike come from different tables or passages of the source.

How the values were obtained:
[1] = biological target: T7 RNA polymerase Y639L/H784A/K378R (Bacteriophage T7) (UniProt P00573); details: MNA yield, 8 mM MgCl2, 2.5 mM MnCl2
[2] = biological target: T7 RNA polymerase P266L/Y639L/H784A/K378R (Bacteriophage T7) (UniProt P00573); details: 11 ug/ml enzyme (65 at 2.6, 13 at 0.66, 8.3 at 0.16 ug/ml); 8 mM MgCl2, 2.5 mM MnCl2
[3] = biological target: T7 RNA polymerase Y639L/H784A/K378R (Bacteriophage T7) (UniProt P00573); details: 2.1 ug/ml enzyme; 2'-OMe NTPs, 8 mM MgCl2, 2.5 mM MnCl2, 37 C
[4] = biological target: von Willebrand factor A1 domain (Homo sapiens) (UniProt P04275); assay: filter; details: 2'-OMe A,G,U; 2'-deoxy C; pool; DPBS with Ca2+ and Mg2+
[5] = biological target: von Willebrand factor (vWF) (Homo sapiens) (UniProt P04275); assay: filter; details: 2'-OMe A,G,U; 2'-deoxy C; pool; DPBS with Ca2+ and Mg2+
IgE (Homo sapiens) = assay: filter; details: 2'-OMe A,G,U; 2'-deoxy C; pool; DPBS with Ca2+ and Mg2+

“GGGAGAATTCCGACCAGAAGCTTNNNNNNNNNNNNNNNNNNNNNNNNNNNNNNNNNNNNNNNNCATATGTGCGTCTACATGGATCCTCA (double strand)” was tested, and the activity ([1]; dCmD yield 365 pmol) was 473 pmol.
“TAATACGACTCACTATAGGGGAGTACAATAACGTTCTCGNNNNNNNNNNNNNNNNNNNNNNNNNNNNNNGGATCGTTACGACTAGCATCGATG (double strand) [ARC2118 transcription template]” showed an activity (normalized MNA transcript yield) [2] of 130 and an activity (normalized MNA transcript yield) [3] of 100.
“GGGAGAATTCCGACCACAAGNNNNNNNNNNNNNNNNNNNNNNNNNNNNNNNNNNNNNNNNCATATGTGCGTCTACATGGATCCTCA [ARC4218 dCmD round 6 pool, vWF selection]” gave a Kd [4] of 4 nM and a Kd [5] of 2 nM.
With “GGGAGAATTCCGACCACAAGNNNNNNNNNNNNNNNNNNNNNNNNNNNNNNNNNNNNNNNNCATATGTGCGTCTACATGGATCCTCA [ARC4218 dCmD round 6 pool, IgE selection]” the Kd (IgE (Homo sapiens)) was 8 nM.
In the case of “GGGAGAGACAAGCTTGGGTCNNNNNNNNNNNNNNNNNNNNNNNNNNNNNNNNNNNNNNNNAGAAGAGAAAGAGAAGTTAATTAAGGATCCTCAG (double strand)”, the activity ([1]; dCmD yield 327 pmol) is reported as 404 pmol.
